Results reported in patent US20160102137A1.

Columns and labels:
Assay in all cases: cell-based or functional assay
[1] = molecular target: HIV-1 envelope (Env) spike trimer of strain 6535.3 (HIV-1 strain 6535.3)
[2] = molecular target: HIV-1 envelope (Env) spike trimer of strain SC4226618 (HIV-1 strain SC4226618)
[3] = molecular target: HIV-1 envelope (Env) spike trimer of strain CAP210 (HIV-1 strain CAP210)

Row | Substance | neutralization potency (IC50) compared with 3BNC60 IgG against HIV-1 6535.3 [1] [fold] | neutralization potency compared with the mixture of Fabs plus dsDNA or the more potent of the two Fabs alone [2] [fold] | neutralization potency compared with the mixture of Fabs plus dsDNA or the more potent of the two Fabs alone [3] [fold]
1 | 3BNC60-62 bp-3BNC60 homo-diFab | 100 | – | –
2 | PG16-60 bp-b12 hetero-diFab (bispecific antibody) | – | 10 | 10
